Reference: publication PMC6930079

Molecular target: YFP-PP1γ (UniProt P36873)
Experiment: live-cell FRET at kinetochores (FRET/CFP intensity ratio)
Settings: HeLa cells, MG132 for 1 hr before imaging, 37°C; Cells = 6, Area KT = 42 (4A) and 50 (WT); parent: est. 1.6; read off a plot

Sequence of UniProt P36873 (P36873 whole entry): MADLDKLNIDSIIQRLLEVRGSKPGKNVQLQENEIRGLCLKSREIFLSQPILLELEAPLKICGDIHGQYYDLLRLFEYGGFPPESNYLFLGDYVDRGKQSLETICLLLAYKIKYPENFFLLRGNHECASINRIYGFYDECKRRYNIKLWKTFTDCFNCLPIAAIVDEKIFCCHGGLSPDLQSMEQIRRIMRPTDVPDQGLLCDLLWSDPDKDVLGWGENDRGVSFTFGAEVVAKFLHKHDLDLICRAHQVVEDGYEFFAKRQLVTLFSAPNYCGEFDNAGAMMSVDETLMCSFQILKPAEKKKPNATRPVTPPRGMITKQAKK

response: 1.2
Substance: Astrin-CFP (WT) (from UniProt Q96R06) 4A (RVMF motif changed to AAAA)
